Measured values from the supplement of paper PMC11780869.

System: Bacillus subtilis
Experiment: cleaved RNA product abundance (RNA/gDNA barcode ratio) relative to median wild-type variant (ratio to wild type); higher = more accumulation of the downstream cleavage product
Conditions: experiment (reporter, strain, medium): exp 8a: truncated aprE reporter, strain BJT201 with 2% xylose (RNase J1 expressed); cleavage site: glnRA (positions -5 to +31 mutated)
Summary of the method: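 Sequencing of barcodes from gel-selected, reverse-transcribed cleaved RNA and from genomic DNA, with UMI collapsing, yielded a per-construct RNA:gDNA ratio. Scaled to the median construct with the unmutated site, this ratio is the cleaved product abundance. The barcoded reporters (truncated aprE or tetM mRNAs with mutagenized RNase Y cleavage-site windows) were integrated into the B. subtilis chromosome, and cultures grew in LB at 37°C from OD600 0.0003 to 0.3.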

Sequence | cleaved RNA product abundance
CGACATGTCCCGCTTCTTTCATTAATCCGTTAGCAACTGTTTTGCTATATACTTTTACCTTTTAAGAGGAGGAAT | 0.641
CGACATGTCCCGCTTCTTTCATTAATCCGTTAGCAACTGTTTTGCTATATAGAATTACCTTTTAAGAGGAGGAAT | 1.14
CGACATGTCCCGCTTCTTTCATTAATCCGTTAGCAACTGTTTTGCTATATAGATTTACCCTTTAAGAGGAGGAAT | 0.684
CGACATGTCCCGCTTCTTTCATTAATCCGTTAGCAACTGTTTTGCTATATAGATTTACCTTTTAAGAGGAGGAAT | 1.11
CGACATGTCCCGCTTCTTTCATTAATCCGTTAGCAACTGTTTTGCTATATATAATTACCTTTTAAGAGGAGGAAT | 0.919
CGACATGTCCCGCTTCTTTCATTAATCCGTTAGCAACTGTTTTGCTATATATATATACCTTTTAAGAGGAGGAAT | 1.12
CGACATGTCCCGCTTCTTTCATTAATCCGTTAGCAACTGTTTTGCTATATATATTTACCCTTTAAGAGGAGGAAT | 0.959
CGACATGTCCCGCTTCTTTCATTAATCCGTTAGCAACTGTTTTGCTATATATATTTACCTTTTAAGAGGAGGAAT | 1.03
CGACATGTCCCGCTTCTTTCATTAATCCGTTAGCAACTGTTTTGCTATATATATTTACTTTTTAAGAGGAGGAAT | 1.89
CGACATGTCCCGCTTCTTTCATTAATCCGTTAGCAACTGTTTTGCTATATATATTTATCTTTTAAGAGGAGGAAT | 1.3
CGACATGTCCCGCTTCTTTCATTAATCCGTTAGCAACTGTTTTGCTATATCCATTGACCTTTTAAGAGGAGGAAT | 0.461
CGACATGTCCCGCTTCTTTCATTAATCCGTTAGCAACTGTTTTGCTATATCCATTTACCTTTTAAGAGGAGGAAT | 0.167
CGACATGTCCCGCTTCTTTCATTAATCCGTTAGCAACTGTTTTGCTATATGCAATTACCTTTTAAGAGGAGGAAT | 0.289
CGACATGTCCCGCTTCTTTCATTAATCCGTTAGCAACTGTTTTGCTATATGCATTTAACTTTTAAGAGGAGGAAT | 0.452
CGACATGTCCCGCTTCTTTCATTAATCCGTTAGCAACTGTTTTGCTATATGCATTTACCTTTTAAGAGGAGGAAT | 0.239
CGACATGTCCCGCTTCTTTCATTAATCCGTTAGCAACTGTTTTGCTATATGTATTTACCTTTTAAGAGGAGGAAT | 0.45
CGACATGTCCCGCTTCTTTCATTAATCCGTTAGCAACTGTTTTGCTATATTAATTTACCTTTTAAGAGGAGGAAT | 0.236
CGACATGTCCCGCTTCTTTCATTAATCCGTTAGCAACTGTTTTGCTATATTACATTTACCTTTTAAGAGGAGGAA | 0.443
CGACATGTCCCGCTTCTTTCATTAATCCGTTAGCAACTGTTTTGCTATATTCATATACCTTTTAAGAGGAGGAAT | 0.449
CGACATGTCCCGCTTCTTTCATTAATCCGTTAGCAACTGTTTTGCTATATTCATTTACCTTTTAAGAGGAGGAAT | 0.233
CGACATGTCCCGCTTCTTTCATTAATCCGTTAGCAACTGTTTTGCTATATTGATTTACCTTTTAAGAGGAGGAAT | 0.263
CGACATGTCCCGCTTCTTTCATTAATCCGTTAGCAACTGTTTTGCTATATTTATTTACCTTTTAAGAGGAGGAAT | 0.495

Sequence | cleaved RNA product abundance
CGACATGTCCCGCTTCTTTCATTAATCCGTTAGCAACTGTTTTGCTATCTAAATTTACCTTTTAAGAGGAGGAAT | 0.123
CGACATGTCCCGCTTCTTTCATTAATCCGTTAGCAACTGTTTTGCTATCTACAGTTACCTTTTAAGAGGAGGAAT | 0.0519
CGACATGTCCCGCTTCTTTCATTAATCCGTTAGCAACTGTTTTGCTATCTACATTTACCTTTTAAGAGGAGGAAT | 0.098
CGACATGTCCCGCTTCTTTCATTAATCCGTTAGCAACTGTTTTGCTATGTACATTTACCTTTTAAGAGGAGGAAT | 0.215
CGACATGTCCCGCTTCTTTCATTAATCCGTTAGCAACTGTTTTGCTATTTAAATTTACCTTTTAAGAGGAGGAAT | 0.144
CGACATGTCCCGCTTCTTTCATTAATCCGTTAGCAACTGTTTTGCTATTTACACTTACCTTTTAAGAGGAGGAAT | 0.12
CGACATGTCCCGCTTCTTTCATTAATCCGTTAGCAACTGTTTTGCTATTTACATATACCTTTTAAGAGGAGGAAT | 0.317
CGACATGTCCCGCTTCTTTCATTAATCCGTTAGCAACTGTTTTGCTATTTACATCTACCTTTTAAGAGGAGGAAT | 0.276
CGACATGTCCCGCTTCTTTCATTAATCCGTTAGCAACTGTTTTGCTATTTACATGTACCTTTTAAGAGGAGGAAT | 0.0435
CGACATGTCCCGCTTCTTTCATTAATCCGTTAGCAACTGTTTTGCTATTTACATTTAACTTTTAAGAGGAGGAAT | 0.208
CGACATGTCCCGCTTCTTTCATTAATCCGTTAGCAACTGTTTTGCTATTTACATTTACCTTTTAAGAGGAGGAAT | 0.16
CGACATGTCCCGCTTCTTTCATTAATCCGTTAGCAACTGTTTTGCTCTATAAATTTACCTTTTAAGAGGAGGAAT | 0.384
CGACATGTCCCGCTTCTTTCATTAATCCGTTAGCAACTGTTTTGCTCTATACATATACCTTTTAAGAGGAGGAAT | 0.176
CGACATGTCCCGCTTCTTTCATTAATCCGTTAGCAACTGTTTTGCTCTATACATTTACCTTTTAAGAGGAGGAAT | 0.265
CGACATGTCCCGCTTCTTTCATTAATCCGTTAGCAACTGTTTTGCTGTATAAATTTACCTTTTAAGAGGAGGAAT | 0.199
CGACATGTCCCGCTTCTTTCATTAATCCGTTAGCAACTGTTTTGCTGTATACATTTACCTTTTAAGAGGAGGAAT | 0.219
CGACATGTCCCGCTTCTTTCATTAATCCGTTAGCAACTGTTTTGCTTTATAAATTTACCTTTTAAGAGGAGGAAT | 0.385
CGACATGTCCCGCTTCTTTCATTAATCCGTTAGCAACTGTTTTGCTTTATACATATACCTTTTAAGAGGAGGAAT | 0.406
CGACATGTCCCGCTTCTTTCATTAATCCGTTAGCAACTGTTTTGCTTTATACATTTAACTTTTAAGAGGAGGAAT | 0.346
CGACATGTCCCGCTTCTTTCATTAATCCGTTAGCAACTGTTTTGCTTTATACATTTACCCTTTAAGAGGAGGAAT | 0.206
CGACATGTCCCGCTTCTTTCATTAATCCGTTAGCAACTGTTTTGCTTTATACATTTACCTTTTAAGAGGAGGAAT | 0.338
CGACATGTCCCGCTTCTTTCATTAATCCGTTAGCAACTGTTTTGCTTTATAGATTTACCTTTTAAGAGGAGGAAT | 0.649

Sequence | cleaved RNA product abundance
CGACATGTCCCGCTTCTTTCATTAATCCGTTAGCAACTGTTTTGGTACATACATTTACCTTTTAAGAGGAGGAAT | 0.119
CGACATGTCCCGCTTCTTTCATTAATCCGTTAGCAACTGTTTTGGTAGATACATTTACCTTTTAAGAGGAGGAAT | 0.115
CGACATGTCCCGCTTCTTTCATTAATCCGTTAGCAACTGTTTTGGTATATACATTTACATTTTAAGAGGAGGAAT | 0.529
CGACATGTCCCGCTTCTTTCATTAATCCGTTAGCAACTGTTTTGGTATATACATTTACCTTTTAAGAGGAGGAAT | 0.237
CGACATGTCCCGCTTCTTTCATTAATCCGTTAGCAACTGTTTTGGTATATATATTTACCTTTTAAGAGGAGGAAT | 0.224
CGACATGTCCCGCTTCTTTCATTAATCCGTTAGCAACTGTTTTGTGATATACATTTACCTTTTAAGAGGAGGAAT | 0.344
CGACATGTCCCGCTTCTTTCATTAATCCGTTAGCAACTGTTTTGTTAAATACATTTACCTTTTAAGAGGAGGAAT | 0.414
CGACATGTCCCGCTTCTTTCATTAATCCGTTAGCAACTGTTTTGTTATAAACATTTACCTTTTAAGAGGAGGAAT | 0.322
CGACATGTCCCGCTTCTTTCATTAATCCGTTAGCAACTGTTTTGTTATAGACATTTACCTTTTAAGAGGAGGAAT | 0.265
CGACATGTCCCGCTTCTTTCATTAATCCGTTAGCAACTGTTTTGTTATATACAGTTACCTTTTAAGAGGAGGAAT | 0.162
CGACATGTCCCGCTTCTTTCATTAATCCGTTAGCAACTGTTTTGTTATATACATATACCTTTTAAGAGGAGGAAT | 0.573
CGACATGTCCCGCTTCTTTCATTAATCCGTTAGCAACTGTTTTGTTATATACATTGACCTTTTAAGAGGAGGAAT | 2.01
CGACATGTCCCGCTTCTTTCATTAATCCGTTAGCAACTGTTTTGTTATATACATTTAACTTTTAAGAGGAGGAAT | 0.617
CGACATGTCCCGCTTCTTTCATTAATCCGTTAGCAACTGTTTTGTTATATACATTTACCCTTTAAGAGGAGGAAT | 0.388
CGACATGTCCCGCTTCTTTCATTAATCCGTTAGCAACTGTTTTGTTATATACATTTACCTTTTAAGAGGAGGAAT | 0.453
CGACATGTCCCGCTTCTTTCATTAATCCGTTAGCAACTGTTTTGTTATATACATTTACGTTTTAAGAGGAGGAAT | 0.39
CGACATGTCCCGCTTCTTTCATTAATCCGTTAGCAACTGTTTTGTTATATACATTTAGCTTTTAAGAGGAGGAAT | 0.257
CGACATGTCCCGCTTCTTTCATTAATCCGTTAGCAACTGTTTTGTTATATACATTTATCTTTTAAGAGGAGGAAT | 0.458
CGACATGTCCCGCTTCTTTCATTAATCCGTTAGCAACTGTTTTGTTATATATATTTACCTTTTAAGAGGAGGAAT | 0.298
CGACATGTCCCGCTTCTTTCATTAATCCGTTAGCAACTGTTTTTATATATACATTTACCTTTTAAGAGGAGGAAT | 0.669
CGACATGTCCCGCTTCTTTCATTAATCCGTTAGCAACTGTTTTTCAATATACATTTACCTTTTAAGAGGAGGAAT | 0.551
CGACATGTCCCGCTTCTTTCATTAATCCGTTAGCAACTGTTTTTCTAGATACATTTACCTTTTAAGAGGAGGAAT | 0.378
